These results are taken from the supplement of paper PMC7877785.

± gives the uncertainty stated by the source.

The data set in a line: self-splicing fitness, log relative to wild type (ln ratio); higher = more splicing; Tetrahymena group I intron in knt gene, E. coli kanamycin selection, DiMSum; sequences stand for … in CUCUCU…GGAGGGAAAAGUUAUCAGGCAUGCACCUGGUAGCUAGUCUUUAAACCAAUAGAUUGCAUCGGUUUAAAAGGCAAGACCGUCAAAUUGCGGGAAAGGGGUCAACAGCCGUUCAGUACCAAGUCUCAGGGGAAACUUUGAGAUGGCCUUGCAAAGGGUAUGGUAAUAAGCUGACGGACAUGGUCCUAACCACGCAGCCAAGUCCUAAGUCAACAGAUCUUCUGUUGAUAUGGAUGCAGUUCACAGACUAAAUGUCGGUCGGGGAAGAUGUAUUCUUCUCAUAAGAUAUAGUCGGACCUCUCCUUAAUGGGAGCUAGCGGAUGAAGUGAUGCAACACUGGAGCCGCUGGGAACUAAUUUGUAUGCGAAAGUAUAUUGAUUAGUUUUGGAGUACUCGUGGUCG
An outline of the steps: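 Fitness was computed with DiMSum as the error-weighted combination of replicate fold changes, kanamycin versus none, each normalised to wild type. The library randomised all eight intron nucleotides of the P1ex region, with the intron placed in the knt kanamycin-resistance gene on pET-22b(+) in E. coli BL21(DE3). Six replicate transformations were grown overnight at 37°C or 30°C on LB agar with or without 25 μg/mL kanamycin, plus 100 μg/mL carbenicillin, 50 μM IPTG and 0.2% rhamnose. Pooled colonies were amplicon-sequenced on an Illumina HiSeq 2500.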

In the case of CCAGAGCAAUAUUACGUCUC, the “self-splicing fitness (ln)” value runs as follows: (30 °C) -3.23 ± 0.15; (37 °C) -2.78 ± 0.23.

For UAAAAGCAAUAUUACGGCAU, the “self-splicing fitness (ln)” value reads like this: (30 °C) -0.376 ± 0.091; (37 °C) -0.235 ± 0.12.

Turning to CAAAAGCAAUAUUACGCGAU, the “self-splicing fitness (ln)” value (30 °C) is -4 ± 0.3 and the “self-splicing fitness (ln)” value (37 °C) was -1.78 ± 0.23.

CCCCAGCAAUAUUACGCUGA: the “self-splicing fitness (ln)” value runs as follows: (30 °C) -3.97 ± 0.2; (37 °C) -2.42 ± 0.17.

Take AAAGAGCAAUAUUACGAGUG: the “self-splicing fitness (ln)” value was -3.95 ± 0.19 (30 °C) and -2.38 ± 0.16 (37 °C).

Turning to AGCAAGCAAUAUUACGCAGC, the “self-splicing fitness (ln)” value is, setting by setting: (30 °C) -2.98 ± 0.27; (37 °C) -2.1 ± 0.35.

With CAGUAGCAAUAUUACGAAUG, the “self-splicing fitness (ln)” value reads like this: (30 °C) -1.36 ± 0.1; (37 °C) -0.492 ± 0.11.

CGAAAGCAAUAUUACGCAGG: the “self-splicing fitness (ln)” value runs as follows: (30 °C) -2.16 ± 0.091; (37 °C) -1.4 ± 0.093.

AUAUAGCAAUAUUACGGAUC: the “self-splicing fitness (ln)” value is -1.55 ± 0.2 (30 °C) and 0.109 ± 0.26 (37 °C).

With CAUUAGCAAUAUUACGUCAU, the “self-splicing fitness (ln)” value by setting is: (30 °C) -4.39 ± 0.3; (37 °C) -2.48 ± 0.21.

CAACAGCAAUAUUACGCCAA: the “self-splicing fitness (ln)” value runs as follows: (30 °C) -2.36 ± 0.14; (37 °C) -1.62 ± 0.14.

Take GCUCAGCAAUAUUACGACGU: the “self-splicing fitness (ln)” value by setting is: (30 °C) 0.0949 ± 0.072; (37 °C) 0.267 ± 0.079.

Consider CAUCAGCAAUAUUACGGCUU, for which the “self-splicing fitness (ln)” value was -2.91 ± 0.14 (30 °C) and -1.75 ± 0.17 (37 °C).

Turning to UAAGAGCAAUAUUACGUGCC, the “self-splicing fitness (ln)” value by setting is: (30 °C) -3.13 ± 0.15; (37 °C) -3.48 ± 0.34.

Regarding UGAUAGCAAUAUUACGACCG, the “self-splicing fitness (ln)” value runs as follows: (30 °C) 0.139 ± 0.13; (37 °C) 0.451 ± 0.17.

As to CUCUAGCAAUAUUACGGUCA, the “self-splicing fitness (ln)” value (30 °C) is -3.27 ± 0.29 and the “self-splicing fitness (ln)” value (37 °C) was -3.17 ± 0.37.

On to UGUUAGCAAUAUUACGCCAG, for which the “self-splicing fitness (ln)” value (30 °C) is -1.36 ± 0.23 and the “self-splicing fitness (ln)” value (37 °C) was -1.76 ± 0.35.

On to CACCAGCAAUAUUACGCGCU, for which the “self-splicing fitness (ln)” value reads like this: (30 °C) -3.42 ± 0.14; (37 °C) -2.59 ± 0.16.

With CAGGAGCAAUAUUACGUAUA, the “self-splicing fitness (ln)” value runs as follows: (30 °C) -4.26 ± 0.34; (37 °C) -1.62 ± 0.21.

In the case of CAAGAGCAAUAUUACGGGGC, the “self-splicing fitness (ln)” value is -1.99 ± 0.14 (30 °C) and -3.02 ± 0.25 (37 °C).

With CGUAAGCAAUAUUACGCGCA, the “self-splicing fitness (ln)” value (30 °C) was -1.3 ± 0.16 and the “self-splicing fitness (ln)” value (37 °C) is -0.345 ± 0.14.

As for ACGUAGCAAUAUUACGUUUC, the “self-splicing fitness (ln)” value reads like this: (30 °C) -4.47 ± 0.25; (37 °C) -2.87 ± 0.19.

As to GUUCAGCAAUAUUACGCGCC, the “self-splicing fitness (ln)” value is -1.96 ± 0.31 (30 °C) and -1.43 ± 0.34 (37 °C).

With ACCGAGCAAUAUUACGUACG, the “self-splicing fitness (ln)” value is, setting by setting: (30 °C) -3.75 ± 0.28; (37 °C) -2.57 ± 0.22.

With CACCAGCAAUAUUACGUCCG, the “self-splicing fitness (ln)” value runs as follows: (30 °C) -0.0929 ± 0.051; (37 °C) 0.19 ± 0.071.

Take ACACAGCAAUAUUACGGGCA: the “self-splicing fitness (ln)” value by setting is: (30 °C) -1.48 ± 0.078; (37 °C) -0.0778 ± 0.091.

For the sequence AUACAGCAAUAUUACGAGUU, the “self-splicing fitness (ln)” value reads like this: (30 °C) -2.65 ± 0.14; (37 °C) -0.493 ± 0.1.

Take ACCCAGCAAUAUUACGCGAC: the “self-splicing fitness (ln)” value was -2.48 ± 0.12 (30 °C) and -1.22 ± 0.13 (37 °C).

For UUGCAGCAAUAUUACGGACA, the “self-splicing fitness (ln)” value by setting is: (30 °C) -0.355 ± 0.074; (37 °C) -0.669 ± 0.091.

GACGAGCAAUAUUACGACUC: the “self-splicing fitness (ln)” value (30 °C) was -1.36 ± 0.15 and the “self-splicing fitness (ln)” value (37 °C) turned out to be 0.797 ± 0.18.

Take GGCAAGCAAUAUUACGUGUG: the “self-splicing fitness (ln)” value is -0.694 ± 0.062 (30 °C) and -0.126 ± 0.071 (37 °C).

Regarding GAUUAGCAAUAUUACGGGGC, the “self-splicing fitness (ln)” value is -3.62 ± 0.49 (30 °C) and -2.97 ± 0.3 (37 °C).

In the case of UCCAAGCAAUAUUACGCGAU, the “self-splicing fitness (ln)” value runs as follows: (30 °C) -4.34 ± 0.21; (37 °C) -2.24 ± 0.17.

With AGCUAGCAAUAUUACGCGGG, the “self-splicing fitness (ln)” value is, setting by setting: (30 °C) -3.3 ± 0.15; (37 °C) -1.53 ± 0.14.

As for CAUCAGCAAUAUUACGAUCA, the “self-splicing fitness (ln)” value runs as follows: (30 °C) -0.959 ± 0.11; (37 °C) -0.294 ± 0.13.

GGCAAGCAAUAUUACGCCUA: the “self-splicing fitness (ln)” value reads like this: (30 °C) -1.04 ± 0.14; (37 °C) -1.19 ± 0.13.

In the case of CCUUAGCAAUAUUACGGUUA, the “self-splicing fitness (ln)” value is -3.48 ± 0.24 (30 °C) and -2.24 ± 0.16 (37 °C).
